From patent US20210246166A1 (Bayer, published 2021)
Numbered stars: 1 amine (or outer) side, 2 acyl side, 3 side chain; on linkers, the order of the positions; unused ones are H or OH. Bridge positions count the residues as written; N and C are the ends. Square brackets hold non-standard residues; d marks the D form. Primed or numbered codes have the meaning given here. Ends that are not written are not given here. PEG9(31 atoms) = 1-amino-3,6,9,12,15,18,21,24,27-nonaoxatriacontan-30-oic acid; TTDS(3) = 1,13-Diamino-4,7,10-trioxatridecan-succinamic acid; Pro(3S,4R-methano) = O=C(O)[C@H]1NC[C@@H]2C[C@@H]21; cPrCO(1-aminomethyl) = O=C(C1(CN[*:1])CC1)[*:2]; Pro(4-spirocPr) = O=C(O)[C@@H]1CC2(CC2)CN1; Oic = O=C(O)[C@@H]1C[C@@H]2CCCC[C@@H]2N1; tBuAla = CC(C)(C)C[C@H](N)C(=O)O; PEG5 = NCCOCCOCCOCCOCCOCCC(=O)O; Pen = CC(C)(S)[C@H](N)C(=O)O; NMeC = CN[C@@H](CS)C(=O)O; PEG3 = NCCOCCOCCOCCC(=O)O; Pip = O=C(O)[C@@H]1CCCCN1; PEG2 = NCCOCCOCCC(=O)O; Sar = CNCC(=O)O

T1: recombinant rat MASP1 active protease (amino acids 302-704, C-terminal His Tag) (rat, UniProt Q8CHN8 302-704)
T1 sequence: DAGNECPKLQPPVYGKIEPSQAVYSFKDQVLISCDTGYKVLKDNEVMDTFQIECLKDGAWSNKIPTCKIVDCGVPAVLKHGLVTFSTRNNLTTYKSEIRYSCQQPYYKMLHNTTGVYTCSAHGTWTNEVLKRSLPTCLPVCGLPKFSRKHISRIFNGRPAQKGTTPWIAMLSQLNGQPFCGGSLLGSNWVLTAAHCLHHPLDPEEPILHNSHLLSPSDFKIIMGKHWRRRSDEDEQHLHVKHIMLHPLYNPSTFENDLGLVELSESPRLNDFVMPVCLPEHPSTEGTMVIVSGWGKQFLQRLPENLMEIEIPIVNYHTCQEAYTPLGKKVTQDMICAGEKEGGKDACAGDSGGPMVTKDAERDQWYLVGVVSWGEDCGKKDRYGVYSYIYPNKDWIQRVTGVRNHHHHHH

T2: recombinant human MASP1 active protease (amino acids 297-699, C-terminal His Tag) (human, UniProt P48740 297-699)
T2 sequence: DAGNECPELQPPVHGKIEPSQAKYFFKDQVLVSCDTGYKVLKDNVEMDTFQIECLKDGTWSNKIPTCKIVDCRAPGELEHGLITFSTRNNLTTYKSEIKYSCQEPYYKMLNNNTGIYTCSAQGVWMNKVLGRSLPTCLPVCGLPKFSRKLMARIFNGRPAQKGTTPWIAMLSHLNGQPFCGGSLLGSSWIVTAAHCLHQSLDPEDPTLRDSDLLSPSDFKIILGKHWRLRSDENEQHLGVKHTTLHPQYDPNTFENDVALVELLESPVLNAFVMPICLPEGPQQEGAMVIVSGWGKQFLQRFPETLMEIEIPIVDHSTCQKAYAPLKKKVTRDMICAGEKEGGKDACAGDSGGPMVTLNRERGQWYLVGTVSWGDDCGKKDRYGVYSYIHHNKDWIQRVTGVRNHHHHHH


Legend:
Test in all cases: cell-based or functional assay
[1] = target: recombinant rat MASP2 active protease (amino acids 296-685, C-terminal His Tag) (rat, UniProt Q9JJS8 296-685)
Chain of recombinant rat MASP2 active protease (amino acids 296-685, C-terminal His Tag) (Q9JJS8 other isoform, or with tags, fused parts or gaps limits assumed): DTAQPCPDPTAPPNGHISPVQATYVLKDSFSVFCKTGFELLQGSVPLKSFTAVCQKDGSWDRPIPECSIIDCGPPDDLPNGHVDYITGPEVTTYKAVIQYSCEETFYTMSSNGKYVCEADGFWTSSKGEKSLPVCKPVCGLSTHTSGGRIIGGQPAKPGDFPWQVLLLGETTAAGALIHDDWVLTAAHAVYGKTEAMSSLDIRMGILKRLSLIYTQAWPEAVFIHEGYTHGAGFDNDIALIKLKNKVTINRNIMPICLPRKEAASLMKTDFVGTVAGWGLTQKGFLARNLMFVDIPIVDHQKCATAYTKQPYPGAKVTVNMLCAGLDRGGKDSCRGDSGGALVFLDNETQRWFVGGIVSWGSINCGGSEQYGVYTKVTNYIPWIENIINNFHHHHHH

[2] = target: T1, recombinant rat MASP1 active protease …
[3] = target: T2, recombinant human MASP1 active protease …

Row | Binder | rat MASP2 IC50 [1] [nM] | rat MASP1 IC50 [2] [nM] | human MASP1 IC50 [3] [nM]
1 | [cPrCO(1-aminomethyl)]ICSRS[tBuAla]PPI[Pen]IPD-NH2 (disulfide 3-11; N-terminus assumed; SMILES CC[C@H](C)[C@@H]1NC(=O)[C@@H]2CCCN2C(=O)[C@@H]2CCCN2C(=O)[C@H](CC(C)(C)C)NC(=O)[C@H](CO)NC(=O)[C@H](CCCNC(=N)N)NC(=O)[C@H](CO)NC(=O)[C@@H](NC(=O)[C@@H](NC(=O)C2(CN)CC2)[C@@H](C)CC)CSSC(C)(C)[C@@H](C(=O)N[C@H](C(=O)N2CCC[C@H]2C(=O)N[C@@H](CC(=O)O)C(N)=O)[C@@H](C)CC)NC1=O) [Example 32: (ACMP)-IC+SRS-((tBu)A)-PPI-(Pen)+IPD-NH2] | 48 | 56 | –
2 | AICSRS[tBuAla]PPI[Pen]IP[dE]-NH2 (disulfide 3-11; N-terminus assumed; SMILES CC[C@H](C)[C@H](NC(=O)[C@H](C)N)C(=O)N[C@H]1CSSC(C)(C)[C@@H](C(=O)N[C@H](C(=O)N2CCC[C@H]2C(=O)N[C@H](CCC(=O)O)C(N)=O)[C@@H](C)CC)NC(=O)[C@H]([C@@H](C)CC)NC(=O)[C@@H]2CCCN2C(=O)[C@@H]2CCCN2C(=O)[C@H](CC(C)(C)C)NC(=O)[C@H](CO)NC(=O)[C@H](CCCNC(=N)N)NC(=O)[C@H](CO)NC1=O) [Example 21: AIC+SRS-((tBu)A)-PPI-(Pen)+IPe-NH2] | 40 | 67 | –
3 | AICSRSLP[Oic]I[Pen]IPD-OH (disulfide 3-11; also: HCl salt) [Example 29: AIC+SRSLP-(Oic)-I-(Pen)+IPD-OH (HCl salt)] | 17.4 | – | –
4 | AICSRSLP[Oic]I[Pen]IPD-OH (disulfide 3-11) [Example 5: AIC+SRSLP-(Oic)-I-(Pen)+IPD-OH (salt free form)] | 49 | – | –
5 | [Sar]ICSRSL[Pro(3S,4R-methano)]PI[Pen]IPE-NH2 (disulfide 3-11; N-terminus assumed; SMILES CC[C@H](C)[C@H](NC(=O)CNC)C(=O)N[C@H]1CSSC(C)(C)[C@@H](C(=O)N[C@H](C(=O)N2CCC[C@H]2C(=O)N[C@@H](CCC(=O)O)C(N)=O)[C@@H](C)CC)NC(=O)[C@H]([C@@H](C)CC)NC(=O)[C@@H]2CCCN2C(=O)[C@@H]2[C@H]3C[C@H]3CN2C(=O)[C@H](CC(C)C)NC(=O)[C@H](CO)NC(=O)[C@H](CCCNC(=N)N)NC(=O)[C@H](CO)NC1=O) | 55 | 67 | –
6 | [Sar]ICSRSLP[Oic]I[Pen]IP-{PEG3-NH2} (disulfide 3-11) [Example 7: ((N-Me)G)-IC+SRSLP-(Oic)-I-(Pen)+IP-(PEG2(13 atoms))-NH2] | 16 | 30 | –
7 | AICSRSLP[Oic]I[Pen]IPD-OH (disulfide 3-11; also: TFA salt) [Example 13: AIC+SRSLP-(Oic)-I-(Pen)+IPD-OH] | 16.4 | – | –
8 | [Sar]ICSRS[tBuAla]PPI[Pen]IP[PEG9(31 atoms)]-NH2 (disulfide 3-11) [Example 44: ((N-Me)G)-IC+SRS-((tBu)A)-PPI-(Pen)+IP-(PEG9(31 atoms))-NH2] | 35 | 87 | –
9 | AICSRS[tBuAla]P[Pro(4-spirocPr)]I[NMeC]IPD-NH2 (disulfide 3-11; N-terminus assumed; SMILES CC[C@H](C)[C@H](NC(=O)[C@H](C)N)C(=O)N[C@H]1CSSC[C@@H](C(=O)N[C@H](C(=O)N2CCC[C@H]2C(=O)N[C@@H](CC(=O)O)C(N)=O)[C@@H](C)CC)N(C)C(=O)[C@H]([C@@H](C)CC)NC(=O)[C@@H]2CC3(CC3)CN2C(=O)[C@@H]2CCCN2C(=O)[C@H](CC(C)(C)C)NC(=O)[C@H](CO)NC(=O)[C@H](CCCNC(=N)N)NC(=O)[C@H](CO)NC1=O) [Example 41: AIC+SRS-((tBu)A)-P-((6S)-5-Azaspiro[2.4]heptane-6-carboxylic acid)-I-((N-Me)C)+IPD-NH2] | 13 | 28 | –
10 | [Sar]ICSRS[tBuAla]PPI[Pen]IP-{PEG2-NH2} (disulfide 3-11; also: HCl salt) [Example 39: ((N-Me)G)-IC+SRS-((tBu)A)-PPI-(Pen)+IP-(PEG1(10 atoms))-NH2 (HCl salt)] | 37 | 49 | –

Continued, values first:

Row | rat MASP2 IC50 [1] [nM] | rat MASP1 IC50 [2] [nM] | human MASP1 IC50 [3] [nM] | Binder
11 | 37 | 75 | – | [Sar]ICSRS[tBuAla]PPI[Pen]IP-{TTDS(3)-NH2} (disulfide 3-11) [Example 85: ((N-Me)G)-IC+SRS-((tBu)A)-PPI-(Pen)+IP-(TTDS)-NH2]
12 | 48 | 120 | – | [Sar]ICSRSLP[Oic]I[Pen]IP-{PEG5‑CH2CO2H (18 atoms)-NH2} (disulfide 3-11) [Example 83: ((N-Me)G)-IC+SRSLP-(Oic)-I-(Pen)+IP-(PEG5-CH2CO2H (18 atoms))-NH2]
13 | – | – | 2 | AICSRSLP[Oic]I[Pen]IPD-OH (disulfide 3-11; also: sodium salt) [Example 431: AIC+SRSLP-(Oic)-I-(Pen)+IPD-OH (sodium salt)]
14 | 68 | 36 | – | [Sar]ICSRSLP[Oic]I[Pen]IPD-OH (disulfide 3-11; N-terminus assumed; SMILES CC[C@H](C)[C@H](NC(=O)CNC)C(=O)N[C@H]1CSSC(C)(C)[C@@H](C(=O)N[C@H](C(=O)N2CCC[C@H]2C(=O)N[C@@H](CC(=O)O)C(=O)O)[C@@H](C)CC)NC(=O)[C@H]([C@@H](C)CC)NC(=O)[C@@H]2C[C@@H]3CCCC[C@@H]3N2C(=O)[C@@H]2CCCN2C(=O)[C@H](CC(C)C)NC(=O)[C@H](CO)NC(=O)[C@H](CCCNC(=N)N)NC(=O)[C@H](CO)NC1=O) [Example 88: ((N-Me)G)-IC+SRSLP-(Oic)-I-(Pen)+IPD-OH]
15 | – | – | 2.7 | AICSRSLP[Oic]I[Pen]IPD-OH (disulfide 3-11; also: choline salt) [Example 432: AIC+SRSLP-(Oic)-I-(Pen)+IPD-OH (choline-salt)]
16 | 27 | 43 | – | [Sar]ICSRS[tBuAla]PPI[Pen]IP-{PEG3-NH2} (disulfide 3-11) [Example 72: ((N-Me)G)-IC+SRS-((tBu)A)-PPI-(Pen)+IP-(PEG2(13 atoms))-NH2]
17 | 27 | 65 | – | [Sar]ICSRS[tBuAla]PPI[Pen]IP-{PEG5‑CH2CO2H (18 atoms)-NH2} (disulfide 3-11) [Example 55: ((N-Me)G)-IC+SRS-((tBu)A)-PPI-(Pen)+IP-(PEG5-CH2CO2H (18 atoms))-NH2]
18 | 80 | – | – | [Sar]ICSRSLP[Oic]I[Pen]IP[PEG3]-OH (disulfide 3-11; N-terminus assumed; SMILES CC[C@H](C)[C@H](NC(=O)CNC)C(=O)N[C@H]1CSSC(C)(C)[C@@H](C(=O)N[C@H](C(=O)N2CCC[C@H]2C(=O)NCCOCCOCCOCCC(=O)O)[C@@H](C)CC)NC(=O)[C@H]([C@@H](C)CC)NC(=O)[C@@H]2C[C@@H]3CCCC[C@@H]3N2C(=O)[C@@H]2CCCN2C(=O)[C@H](CC(C)C)NC(=O)[C@H](CO)NC(=O)[C@H](CCCNC(=N)N)NC(=O)[C@H](CO)NC1=O) [Example 468: ((N-Me)G)-IC+SRSLP-(Oic)-I-(Pen)+IP-(PEG2(13 atoms))-OH]
19 | – | – | 56 | GICSRSL[Pip]PICID-OH (disulfide 3-11; N-terminus assumed; SMILES CC[C@H](C)[C@H](NC(=O)CN)C(=O)N[C@H]1CSSC[C@@H](C(=O)N[C@H](C(=O)N[C@@H](CC(=O)O)C(=O)O)[C@@H](C)CC)NC(=O)[C@H]([C@@H](C)CC)NC(=O)[C@@H]2CCCN2C(=O)[C@@H]2CCCCN2C(=O)[C@H](CC(C)C)NC(=O)[C@H](CO)NC(=O)[C@H](CCCNC(=N)N)NC(=O)[C@H](CO)NC1=O) [Example 401: GIC+SRSL-(Pip)-PIC+ID-OH]
20 | 48 | 160 | – | VICSRS[tBuAla]PPI[Pen]IPD-NH2 (disulfide 3-11; N-terminus assumed; SMILES CC[C@H](C)[C@H](NC(=O)[C@@H](N)C(C)C)C(=O)N[C@H]1CSSC(C)(C)[C@@H](C(=O)N[C@H](C(=O)N2CCC[C@H]2C(=O)N[C@@H](CC(=O)O)C(N)=O)[C@@H](C)CC)NC(=O)[C@H]([C@@H](C)CC)NC(=O)[C@@H]2CCCN2C(=O)[C@@H]2CCCN2C(=O)[C@H](CC(C)(C)C)NC(=O)[C@H](CO)NC(=O)[C@H](CCCNC(=N)N)NC(=O)[C@H](CO)NC1=O) [Example 54: VIC+SRS-((tBu)A)-PPI-(Pen)+IPD-NH2]
21 | 51 | 120 | – | [Sar]ICSRSLP[Oic]I[Pen]IP-{PEG5-NH2} (disulfide 3-11) [Example 97: ((N-Me)G)-IC+SRSLP-(Oic)-I-(Pen)+IP-(PEG4(19 atoms))-NH2]
22 | 36 | 72 | – | [Sar]ICSRSLP[Oic]I[Pen]IP-NH2 (disulfide 3-11; also: HCl salt) [Example 67: ((N-Me)G)-IC+SRSLP-(Oic)-I-(Pen)+IP-NH2 (HCl salt)]
